Data on eleven molecules can be found in US20170266254A1 (AILERON THERAPEUTICS, published 2017).

Positions count from the first letter of the chain named. Bridges are numbered along the chain shown (N, C = ends). [ ]: non-standard residue; d: D form. S5 = C=CCCC[C@](C)(N)C(=O)O A value given as a limit tells only on which side of the number the result lay.

T1: C-terminally 6x Histidine-tagged Beta-Catenin (aa 134-668, 59 KD) (UniProt P35222 134-668)
T1 construct: range 134-668; Armadillo repeat region
T1 sequence: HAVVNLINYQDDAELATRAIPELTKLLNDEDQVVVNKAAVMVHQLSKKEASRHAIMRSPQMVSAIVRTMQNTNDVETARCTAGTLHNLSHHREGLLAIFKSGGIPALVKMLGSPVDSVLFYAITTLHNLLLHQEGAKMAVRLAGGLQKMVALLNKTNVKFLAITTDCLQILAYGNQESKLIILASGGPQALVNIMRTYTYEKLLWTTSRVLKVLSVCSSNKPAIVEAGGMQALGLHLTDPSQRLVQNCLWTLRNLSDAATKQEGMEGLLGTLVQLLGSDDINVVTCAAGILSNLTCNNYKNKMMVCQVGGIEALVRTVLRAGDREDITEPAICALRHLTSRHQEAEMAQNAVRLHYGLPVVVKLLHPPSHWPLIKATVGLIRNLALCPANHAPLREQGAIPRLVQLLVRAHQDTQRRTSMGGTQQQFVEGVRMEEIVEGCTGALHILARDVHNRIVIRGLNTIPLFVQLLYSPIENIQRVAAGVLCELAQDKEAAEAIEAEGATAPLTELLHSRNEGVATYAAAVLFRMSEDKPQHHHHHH

B1: SP37 (peptide)
peptide: LGANDELISFADEGAQEEKSSNNSSAARDLADVKSSLV
modifications: not fully specified; N-terminal acetyl; C-terminal amide; $ = (S)-alpha-(2'-pentenyl)alanine at positions 11 and 15 (first crosslink) and 27 and 31 (second crosslink), each pair joined by an all-carbon crosslinker with one double bond
B2: SP27 (peptide)
peptide: Ac-LGANDELISFK[S5]EGE[S5]EEKSSNNSSAERDLADVKSSLV-NH2
modifications: staple 12-16
SMILES: CC[C@H](C)[C@H](NC(=O)[C@H](CC(C)C)NC(=O)[C@H](CCC(=O)O)NC(=O)[C@H](CC(=O)O)NC(=O)[C@H](CC(N)=O)NC(=O)[C@H](C)NC(=O)CNC(=O)[C@H](CC(C)C)NC(C)=O)C(=O)N[C@@H](CO)C(=O)N[C@@H](Cc1ccccc1)C(=O)N[C@@H](CCCCN)C(=O)N[C@@]1(C)CCCC=CCCC[C@@](C)(C(=O)N[C@@H](CCC(=O)O)C(=O)N[C@@H](CCC(=O)O)C(=O)N[C@@H](CCCCN)C(=O)N[C@@H](CO)C(=O)N[C@@H](CO)C(=O)N[C@@H](CC(N)=O)C(=O)N[C@@H](CC(N)=O)C(=O)N[C@@H](CO)C(=O)N[C@@H](CO)C(=O)N[C@@H](C)C(=O)N[C@@H](CCC(=O)O)C(=O)N[C@@H](CCCNC(=N)N)C(=O)N[C@@H](CC(=O)O)C(=O)N[C@@H](CC(C)C)C(=O)N[C@@H](C)C(=O)N[C@@H](CC(=O)O)C(=O)N[C@H](C(=O)N[C@@H](CCCCN)C(=O)N[C@@H](CO)C(=O)N[C@@H](CO)C(=O)N[C@@H](CC(C)C)C(=O)N[C@H](C(N)=O)C(C)C)C(C)C)NC(=O)[C@H](CCC(=O)O)NC(=O)CNC(=O)[C@H](CCC(=O)O)NC1=O
B3: SP30 (peptide)
peptide: Ac-LGANDELISFKDEGEQEEKSSENSSA[S5]RDL[S5]DVKSSLV-NH2
modifications: staple 27-31
SMILES: CC[C@H](C)[C@H](NC(=O)[C@H](CC(C)C)NC(=O)[C@H](CCC(=O)O)NC(=O)[C@H](CC(=O)O)NC(=O)[C@H](CC(N)=O)NC(=O)[C@H](C)NC(=O)CNC(=O)[C@H](CC(C)C)NC(C)=O)C(=O)N[C@@H](CO)C(=O)N[C@@H](Cc1ccccc1)C(=O)N[C@@H](CCCCN)C(=O)N[C@@H](CC(=O)O)C(=O)N[C@@H](CCC(=O)O)C(=O)NCC(=O)N[C@@H](CCC(=O)O)C(=O)N[C@@H](CCC(N)=O)C(=O)N[C@@H](CCC(=O)O)C(=O)N[C@@H](CCC(=O)O)C(=O)N[C@@H](CCCCN)C(=O)N[C@@H](CO)C(=O)N[C@@H](CO)C(=O)N[C@@H](CCC(=O)O)C(=O)N[C@@H](CC(N)=O)C(=O)N[C@@H](CO)C(=O)N[C@@H](CO)C(=O)N[C@@H](C)C(=O)N[C@@]1(C)CCCC=CCCC[C@@](C)(C(=O)N[C@@H](CC(=O)O)C(=O)N[C@H](C(=O)N[C@@H](CCCCN)C(=O)N[C@@H](CO)C(=O)N[C@@H](CO)C(=O)N[C@@H](CC(C)C)C(=O)N[C@H](C(N)=O)C(C)C)C(C)C)NC(=O)[C@H](CC(C)C)NC(=O)[C@H](CC(=O)O)NC(=O)[C@H](CCCNC(=N)N)NC1=O
B4: SP26 (peptide)
peptide: B1 peptide with A27E
modifications: not fully specified; N-terminal acetyl; C-terminal amide; $ = (S)-alpha-(2'-pentenyl)alanine at positions 11 and 15, joined by an all-carbon crosslinker with one double bond
B5: SP25 (peptide)
peptide: Ac-LGANAELISFKDEGEQEEKSSENSSAERDLADAKSSAV-NH2
notes: Linear, not crosslinked; differs from SP14 by Ala at peptide positions 5, 33 and 37
B6: SP24 (peptide)
peptide: Ac-LGANAELISFKDEGEQEEKSSENSSAERDLADVKSSLV-NH2
notes: Linear, not crosslinked; differs from SP14 by Asp to Ala at the fifth residue of the peptide
B7: SP29 (peptide)
peptide: Ac-LGANDELISFKDEGE[S5]EEK[S5]SNNSSAERDLADVKSSLV-NH2
modifications: staple 16-20
SMILES: CC[C@H](C)[C@H](NC(=O)[C@H](CC(C)C)NC(=O)[C@H](CCC(=O)O)NC(=O)[C@H](CC(=O)O)NC(=O)[C@H](CC(N)=O)NC(=O)[C@H](C)NC(=O)CNC(=O)[C@H](CC(C)C)NC(C)=O)C(=O)N[C@@H](CO)C(=O)N[C@@H](Cc1ccccc1)C(=O)N[C@@H](CCCCN)C(=O)N[C@@H](CC(=O)O)C(=O)N[C@@H](CCC(=O)O)C(=O)NCC(=O)N[C@@H](CCC(=O)O)C(=O)N[C@@]1(C)CCCC=CCCC[C@@](C)(C(=O)N[C@@H](CO)C(=O)N[C@@H](CC(N)=O)C(=O)N[C@@H](CC(N)=O)C(=O)N[C@@H](CO)C(=O)N[C@@H](CO)C(=O)N[C@@H](C)C(=O)N[C@@H](CCC(=O)O)C(=O)N[C@@H](CCCNC(=N)N)C(=O)N[C@@H](CC(=O)O)C(=O)N[C@@H](CC(C)C)C(=O)N[C@@H](C)C(=O)N[C@@H](CC(=O)O)C(=O)N[C@H](C(=O)N[C@@H](CCCCN)C(=O)N[C@@H](CO)C(=O)N[C@@H](CO)C(=O)N[C@@H](CC(C)C)C(=O)N[C@H](C(N)=O)C(C)C)C(C)C)NC(=O)[C@H](CCCCN)NC(=O)[C@H](CCC(=O)O)NC(=O)[C@H](CCC(=O)O)NC1=O
B8: SP28 (peptide)
peptide: Ac-LGANDELISFKDEG[S5]QEE[S5]SSNNSSAERDLADVKSSLV-NH2
modifications: staple 15-19
SMILES: CC[C@H](C)[C@H](NC(=O)[C@H](CC(C)C)NC(=O)[C@H](CCC(=O)O)NC(=O)[C@H](CC(=O)O)NC(=O)[C@H](CC(N)=O)NC(=O)[C@H](C)NC(=O)CNC(=O)[C@H](CC(C)C)NC(C)=O)C(=O)N[C@@H](CO)C(=O)N[C@@H](Cc1ccccc1)C(=O)N[C@@H](CCCCN)C(=O)N[C@@H](CC(=O)O)C(=O)N[C@@H](CCC(=O)O)C(=O)NCC(=O)N[C@@]1(C)CCCC=CCCC[C@@](C)(C(=O)N[C@@H](CO)C(=O)N[C@@H](CO)C(=O)N[C@@H](CC(N)=O)C(=O)N[C@@H](CC(N)=O)C(=O)N[C@@H](CO)C(=O)N[C@@H](CO)C(=O)N[C@@H](C)C(=O)N[C@@H](CCC(=O)O)C(=O)N[C@@H](CCCNC(=N)N)C(=O)N[C@@H](CC(=O)O)C(=O)N[C@@H](CC(C)C)C(=O)N[C@@H](C)C(=O)N[C@@H](CC(=O)O)C(=O)N[C@H](C(=O)N[C@@H](CCCCN)C(=O)N[C@@H](CO)C(=O)N[C@@H](CO)C(=O)N[C@@H](CC(C)C)C(=O)N[C@H](C(N)=O)C(C)C)C(C)C)NC(=O)[C@H](CCC(=O)O)NC(=O)[C@H](CCC(=O)O)NC(=O)[C@H](CCC(N)=O)NC1=O
B9: SP13 (peptide)
peptide: Ac-SAERDLADVKS[S5]LVN[S5]SEKR-NH2
modifications: staple 12-16
SMILES: CC(=O)N[C@@H](CO)C(=O)N[C@@H](C)C(=O)N[C@@H](CCC(=O)O)C(=O)N[C@@H](CCCNC(=N)N)C(=O)N[C@@H](CC(=O)O)C(=O)N[C@@H](CC(C)C)C(=O)N[C@@H](C)C(=O)N[C@@H](CC(=O)O)C(=O)N[C@H](C(=O)N[C@@H](CCCCN)C(=O)N[C@@H](CO)C(=O)N[C@@]1(C)CCCC=CCCC[C@@](C)(C(=O)N[C@@H](CO)C(=O)N[C@@H](CCC(=O)O)C(=O)N[C@@H](CCCCN)C(=O)N[C@@H](CCCNC(=N)N)C(N)=O)NC(=O)[C@H](CC(N)=O)NC(=O)[C@H](C(C)C)NC(=O)[C@H](CC(C)C)NC1=O)C(C)C
B10: SP23 (peptide)
peptide: Ac-SAE[S5]DLA[S5]VKSSLVNESEKR-NH2
modifications: staple 4-8
SMILES: CC(=O)N[C@@H](CO)C(=O)N[C@@H](C)C(=O)N[C@@H](CCC(=O)O)C(=O)N[C@@]1(C)CCCC=CCCC[C@@](C)(C(=O)N[C@H](C(=O)N[C@@H](CCCCN)C(=O)N[C@@H](CO)C(=O)N[C@@H](CO)C(=O)N[C@@H](CC(C)C)C(=O)N[C@H](C(=O)N[C@@H](CC(N)=O)C(=O)N[C@@H](CCC(=O)O)C(=O)N[C@@H](CO)C(=O)N[C@@H](CCC(=O)O)C(=O)N[C@@H](CCCCN)C(=O)N[C@@H](CCCNC(=N)N)C(N)=O)C(C)C)C(C)C)NC(=O)[C@H](C)NC(=O)[C@H](CC(C)C)NC(=O)[C@H](CC(=O)O)NC1=O

In this experiment the target is T1, C-terminally 6x Histidine-tagged …. As to the kind of experiment: competitive fluorescence polarization, FAM-labelled linear probe as competitor, His-tagged beta-catenin 134-668. How it is done: The following experiments are performed at room temperature unless otherwise noted. First, an assay buffer is prepared composed of 25 mM Tris-Hcl pH 7.5, 200 mM Sodium Chloride, and 5 mM CHAPS. Next, 1M DTT is added to assay buffer to a final concentration of 2 mM. […] Forty μl of this protein stock is added to all but six wells of a 96 well plate (which will serve as the free peptide and Blank). Test competitor peptides are diluted from 1 mM DMSO stocks to 2× working stocks in assay buffer. Further dilutions are made in assay buffer-DMSO as to maintain a constant DMSO concentration in all wells. The dilution is carried out such that the peptides have a working concentration range of 40 μM-0.7 μM (2×). As a benchmark, a linear, non-crosslinked peptide competitor is prepared as above but with a working concentration range of 13-0.7 μM. Fifty μl of the competitor 2× stocks are added to the 40 μl of protein solution previously transferred into the assay 96 well plate. Next, a 10× stock of the fluorescent probe is prepared. The probe is identical to the linear benchmark peptide except for the n-terminal conjugation of a FAM flourophore with Beta-Alanine spacer. A 1 mM DMSO stock of the probe is serially diluted to a final concentration of 25 nM (10×) and 10 μl of this stock is added to all wells except for those that will serve as the blank. The assay plate is stored in the dark and the reaction is allowed to run at room temperature for three hours. The reaction is then read on a Biotek Synergy 2 with the following settings: 100 ms delay, 40 measurements per well, with excitation filters of […], and emission filters of […]. Data is then analyzed in Graphpad Prism.
On the technique in general: Fluorescence polarisation rises when a labelled molecule tumbles more slowly, as on binding a larger partner.
As a reminder, the IC50 is the point on the concentration scale where inhibition reaches its midpoint. B1: the IC50 came to 56 nM.

For B2, the IC50 amounted to 158 nM.

Consider B3, for which the IC50 is 98 nM.

Turning to Ac-LGANDELISFKDEGEQEEKSSENSSAERDLADVKSSLV-NH2 (Linear, not crosslinked) [SP14], the concentration for half-maximal inhibition (IC50) is 95 nM.

Regarding B4, the IC50 came to 42 nM.

Consider B5, for which the IC50 is at least 100000 nM.

Turning to B6, the IC50 was at least 100000 nM.

For the molecule B7, the IC50 was determined as 223 nM.

On to B8, for which the IC50 stood at 158 nM.

Turning to B9, the IC50 is at least 100000 nM.

As to B10, the IC50 is at least 100000 nM.
